Test results taken from US20100081621.

Molecular target: APOBEC3G D316R/D317R D316R,D317R (Homo sapiens) (UniProt Q9HC16)
Conditions: deamination; middle and 3' C deaminated at about same rate

Chain of APOBEC3G D316R/D317R D316R,D317R (Homo sapiens) (Q9HC16 whole entry D316R/D317R): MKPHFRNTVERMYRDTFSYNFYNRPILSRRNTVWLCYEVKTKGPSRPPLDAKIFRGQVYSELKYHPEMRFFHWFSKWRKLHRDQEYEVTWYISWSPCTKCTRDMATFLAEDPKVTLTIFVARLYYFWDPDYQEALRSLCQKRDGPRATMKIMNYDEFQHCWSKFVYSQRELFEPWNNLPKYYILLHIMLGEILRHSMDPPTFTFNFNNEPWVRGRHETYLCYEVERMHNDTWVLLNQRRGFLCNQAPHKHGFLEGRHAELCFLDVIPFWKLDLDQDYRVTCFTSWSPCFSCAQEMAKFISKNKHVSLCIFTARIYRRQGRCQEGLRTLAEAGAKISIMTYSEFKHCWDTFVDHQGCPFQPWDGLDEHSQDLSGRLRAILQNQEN

## FdT ssDNA deamination substrate with CCC motif
  activity: 1.6 fold of wt
